Results on one molecule are retold here after patent US20110313028A1 (VIRGINIA COMMONWEALTH UNIVERSITY, published 2011).

Test [1] addresses T1, c-Fos (UniProt P01100 1-380, limits assumed).
T1 construct: Tested in 'similar assays'; The construct is not described
Briefly: similar assays (two-hybrid / co-immunoprecipitation; not specified).

The target of test [2] is T2, ATF-2 (UniProt P15336 1-505, limits assumed).
T2 construct: Tested in 'similar assays'; The construct is not described
T2 sequence (looked up): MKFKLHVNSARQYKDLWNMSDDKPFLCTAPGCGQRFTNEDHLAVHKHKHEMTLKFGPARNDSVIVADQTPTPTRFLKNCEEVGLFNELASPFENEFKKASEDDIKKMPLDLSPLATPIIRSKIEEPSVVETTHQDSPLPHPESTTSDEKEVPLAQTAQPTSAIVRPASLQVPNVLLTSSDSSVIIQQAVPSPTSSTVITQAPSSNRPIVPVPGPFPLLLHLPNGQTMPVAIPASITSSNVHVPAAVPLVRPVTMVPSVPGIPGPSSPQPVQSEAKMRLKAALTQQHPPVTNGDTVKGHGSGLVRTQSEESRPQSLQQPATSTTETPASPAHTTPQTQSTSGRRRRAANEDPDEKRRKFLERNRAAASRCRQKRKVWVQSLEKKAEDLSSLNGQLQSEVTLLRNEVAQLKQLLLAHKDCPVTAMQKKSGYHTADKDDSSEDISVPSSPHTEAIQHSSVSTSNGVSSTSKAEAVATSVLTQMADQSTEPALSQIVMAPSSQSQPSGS
The description is as above.

T1 sequence (P01100 whole entry): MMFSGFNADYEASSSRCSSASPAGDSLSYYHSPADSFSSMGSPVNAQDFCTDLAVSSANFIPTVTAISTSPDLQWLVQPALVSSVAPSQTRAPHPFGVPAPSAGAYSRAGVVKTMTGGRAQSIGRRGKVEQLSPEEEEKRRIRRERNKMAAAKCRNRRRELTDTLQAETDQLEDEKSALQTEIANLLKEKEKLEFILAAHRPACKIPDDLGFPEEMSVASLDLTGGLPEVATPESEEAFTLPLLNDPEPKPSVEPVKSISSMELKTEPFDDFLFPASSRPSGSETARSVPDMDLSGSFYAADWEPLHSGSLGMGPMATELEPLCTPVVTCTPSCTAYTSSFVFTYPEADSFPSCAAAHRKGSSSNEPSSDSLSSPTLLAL

B1: HA-tagged SARI (Suppressor of AP-1, Regulated by IFN), expressed in HeLa cells from Ad.SARI (other)
chain: MHLCGGNGLLTQTDPKEQQRQLKKQKNRAAAQRSRQKHTDKADALHQQHESLEKDNLALRKEIQSLQAELAWWSRTLHVHERLCPMDCASCSAPGLLGCWDQAEGLLGPGPQGQHGCREQLELFQTPGSCYPAQPLSPGPQPHDSPSLLQCPLPSLSLGPAVVAEPPVQLSPSPLLFASHTGSSLQGSSSKLSALQPSLTAQTAPPQPLELEHPTRGKLGSSPDNPSSALGLARLQSREHKPALSAATWQGLVVDPSPHPLLAFPLLSSAQVHF
notes: also called SARI protein; WT SARI; not shown: HA tag
Regarding B1, the binding result in test [1] and in test [2] was “no binding” in each case.
